Measurements taken from the supplement of paper PMC10201428.
± gives the standard deviation of the averaged measurements.

B1: library; a variant is named by its letters at N, in order (parent)
chain: ACATTTGTTGATACAACCATAAAATGATAATTACACCCATAAATTGATAATTATCACACCCANNNNNNNNNNNNNNCTCTGATCATAGTCAGACCAACATTGCTACGACCCGTATTCGCACCGACAC

Key:
[1] = variants of: B1; assay: relative integration efficiency (T-RL orientation) vs wild-type transposon end (log2 (normalized fold change)); transposon end mutated: right end (5 bp flank + 75 bp right end); higher = more efficient transposition; conditions: with VchCAST RNA-guided transposition machinery (E. coli BL21(DE3) host, lacZ target)
In short: (§1)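 Barcoded pools of 1549 left-end or 1849 right-end transposon variants were cloned into a pUC57 mini-transposon donor. Each pool was co-transformed with a T7-driven effector plasmid (CRISPR array, tniQ-cas8-cas7-cas6, tnsA-tnsB-tnsC) into E. coli BL21(DE3) and plated with 0.1 mM IPTG at 37°C for 18 h. Input plasmids and genomic integration junctions were PCR-amplified and Illumina-sequenced, with two biological output replicates and four wild-type barcodes as reference. Relative integration efficiency is output/input barcode abundance fold change, normalised to wild-type barcodes and log-transformed.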

[2] = variants of: B1; assay: relative integration efficiency (T-LR orientation) vs wild-type transposon end (log2 (normalized fold change)); transposon end mutated: right end (5 bp flank + 75 bp right end); higher = more efficient transposition; conditions: with VchCAST RNA-guided transposition machinery (E. coli BL21(DE3) host, lacZ target)
In short: as §1

## TAACGTGATATTGC
[1]
  relative integration efficiency (log2): -0.0871 ± 0.004
[2]
  relative integration efficiency (log2): 0.67 ± 0.2

## ATTTAACTATAACG A39G
[1]
  relative integration efficiency (log2): -0.496 ± 0.057
[2]
  relative integration efficiency (log2): 2.47 ± 0.042

## ATTTAACTATAACG A39C
[1]
  relative integration efficiency (log2): -2.44 ± 0.36
[2]
  relative integration efficiency (log2): 0.461 ± 0.1

## ATTTAACTATAACG A39T
[1]
  relative integration efficiency (log2): -1.34 ± 0.21
[2]
  relative integration efficiency (log2): 1.59 ± 0.1

## TAAATTTCGCTTGC
[1]
  relative integration efficiency (log2): -0.702 ± 0.069
[2]
  relative integration efficiency (log2): 2.429 ± 0.022

## ATTTAACTATAACG T28C
[1]
  relative integration efficiency (log2): -1.29 ± 0.26
[2]
  relative integration efficiency (log2): 2.16 ± 0.037

## ATTTAACTATAACG T28G
[1]
  relative integration efficiency (log2): -1.52 ± 0.28
[2]
  relative integration efficiency (log2): 1.89 ± 0.21

## ATTTAACTATAACG T51C
[1]
  relative integration efficiency (log2): -1.04 ± 0.24
[2]
  relative integration efficiency (log2): 2.48 ± 0.17

## ATTTAACTATAACG T51G
[1]
  relative integration efficiency (log2): -1.67 ± 0.15
[2]
  relative integration efficiency (log2): 2.1 ± 0.14

## ATTTAACTATAACG T51A
[1]
  relative integration efficiency (log2): -1.46 ± 0.28
[2]
  relative integration efficiency (log2): 2.29 ± 0.1

## TGAATTGATATTGC
[1]
  relative integration efficiency (log2): -0.596 ± 0.095
[2]
  relative integration efficiency (log2): 1.91 ± 0.29

## TAAATTGCGCGTGC
[1]
  relative integration efficiency (log2): -0.618 ± 0.12
[2]
  relative integration efficiency (log2): 1.7 ± 0.1

## TTTTATGATATTGC
[1]
  relative integration efficiency (log2): -0.0751 ± 0.044
[2]
  relative integration efficiency (log2): 0.744 ± 0.14

## ATTTAACTATAACG C34A
[1]
  relative integration efficiency (log2): -1.12 ± 0.27
[2]
  relative integration efficiency (log2): 2.11 ± 0.056

## ATTTAACTATAACG C34G
[1]
  relative integration efficiency (log2): -1.76 ± 0.18
[2]
  relative integration efficiency (log2): 1.73 ± 0.16

## ATTTAACTATAACG T48G
[1]
  relative integration efficiency (log2): -1.18 ± 0.2
[2]
  relative integration efficiency (log2): 1.85 ± 0.083

## ATTTAACTATAACG T48C
[1]
  relative integration efficiency (log2): -1.24 ± 0.25
[2]
  relative integration efficiency (log2): 2.03 ± 0.086

## ATTTAACTATAACG T52A
[1]
  relative integration efficiency (log2): -1.26 ± 0.2
[2]
  relative integration efficiency (log2): 2.3 ± 0.12

## ATTTAACTATAACG T52G
[1]
  relative integration efficiency (log2): -1.31 ± 0.41
[2]
  relative integration efficiency (log2): 2.29 ± 0.27

## ATTTAACTATAACG A11C
[1]
  relative integration efficiency (log2): -0.753 ± 0.07
[2]
  relative integration efficiency (log2): 1.51 ± 0.15

## ATTTAACTATAACG A11T
[1]
  relative integration efficiency (log2): -0.284 ± 0.19
[2]
  relative integration efficiency (log2): 2.19 ± 0.049

## ATTTAACTATAACG A11G
[1]
  relative integration efficiency (log2): -0.569 ± 0.088
[2]
  relative integration efficiency (log2): 1.83 ± 0.095

## ATTTAACTATAACG A47C
[1]
  relative integration efficiency (log2): -0.686 ± 0.38
[2]
  relative integration efficiency (log2): 2.63 ± 0.064

## ATTTAACTATAACG A47G
[1]
  relative integration efficiency (log2): -0.679 ± 0.11
[2]
  relative integration efficiency (log2): 2.25 ± 0.039

## ATTTAACTATAACG A47T
[1]
  relative integration efficiency (log2): -1.17 ± 0.26
[2]
  relative integration efficiency (log2): 1.84 ± 0.026

## ATTTAACTATAACG T20G
[1]
  relative integration efficiency (log2): -2 ± 0.4
[2]
  relative integration efficiency (log2): 0.721 ± 0.045

## ATTTAACTATAACG T20C
[1]
  relative integration efficiency (log2): -1.47 ± 0.3
[2]
  relative integration efficiency (log2): 1.3 ± 0.48

## ATTTAACTATAACG T20A
[1]
  relative integration efficiency (log2): -1.07 ± 0.11
[2]
  relative integration efficiency (log2): 2.04 ± 0.098

## ATTTAACTATAACG A42C
[1]
  relative integration efficiency (log2): -1.82 ± 0.3
[2]
  relative integration efficiency (log2): 1.03 ± 0.13

## ATTTAACTATAACG A42T
[1]
  relative integration efficiency (log2): -0.805 ± 0.085
[2]
  relative integration efficiency (log2): 2.24 ± 0.14

## ATTTAACTATAACG A42G
[1]
  relative integration efficiency (log2): -1.62 ± 0.22
[2]
  relative integration efficiency (log2): 1.19 ± 0.16

## TATTAAGATATTGC
[1]
  relative integration efficiency (log2): -0.535 ± 0.084
[2]
  relative integration efficiency (log2): 1.66 ± 0.11

## GCCCTTGATATTGC
[1]
  relative integration efficiency (log2): -0.468 ± 0.1
[2]
  relative integration efficiency (log2): 2.5 ± 0.11

## ATTTAACTATAACG A16T
[1]
  relative integration efficiency (log2): -0.779 ± 0.2
[2]
  relative integration efficiency (log2): 2.59 ± 0.066

## ATTTAACTATAACG A16C
[1]
  relative integration efficiency (log2): -1.24 ± 0.14
[2]
  relative integration efficiency (log2): 2 ± 0.11

## ATTTAACTATAACG A16G
[1]
  relative integration efficiency (log2): -1.04 ± 0.027
[2]
  relative integration efficiency (log2): 2.09 ± 0.17

## TAAATTGATTATGC
[1]
  relative integration efficiency (log2): -0.138 ± 0.008
[2]
  relative integration efficiency (log2): 0.414 ± 0.43

## ATTTAACTATAACG A49C
[1]
  relative integration efficiency (log2): -1.46 ± 0.19
[2]
  relative integration efficiency (log2): 2.17 ± 0.094

## ATTTAACTATAACG A49T
[1]
  relative integration efficiency (log2): -1.3 ± 0.35
[2]
  relative integration efficiency (log2): 2.31 ± 0.04

## ATTTAACTATAACG T25C
[1]
  relative integration efficiency (log2): -1.07 ± 0.25
[2]
  relative integration efficiency (log2): 2.2 ± 0.17

## ATTTAACTATAACG T25G
[1]
  relative integration efficiency (log2): -1.44 ± 0.3
[2]
  relative integration efficiency (log2): 1.851 ± 0.01

## ATTTAACTATAACG T25A
[1]
  relative integration efficiency (log2): -1.13 ± 0.11
[2]
  relative integration efficiency (log2): 2.26 ± 0.046

## TAAATTGATATTTA
[1]
  relative integration efficiency (log2): 0.1 ± 0.034
[2]
  relative integration efficiency (log2): 0.122 ± 0.099

## TAAATTGATATTTC
[1]
  relative integration efficiency (log2): -0.0163 ± 0.045
[2]
  relative integration efficiency (log2): -0.13 ± 0.15

## TAAATTTCTATTGC
[1]
  relative integration efficiency (log2): -0.55 ± 0.13
[2]
  relative integration efficiency (log2): 2.4 ± 0.28

## TCCCGTGATATTGC
[1]
  relative integration efficiency (log2): -0.648 ± 0.091
[2]
  relative integration efficiency (log2): 2.35 ± 0.13
